This test addresses TraF/VirB10 C-terminal domain starting at N161 (elastase-cleaved, C-terminal Strep-tag) (Escherichia coli (plasmid pKM101)) (UniProt Q46705). Kind of test: cryo-EM structure.

Usually stoichiometry N stands for a count of units in the complex or per binding partner.

“TraF/VirB10 C-terminal domain starting at N161 (elastase-cleaved, C-terminal Strep-tag) (from UniProt Q46705 161-386) (domain or fragment)” came in with a stoichiometry N of 14.

The values above are taken from paper PMC3630358.
